In the DeepSol protein solubility set:

Assay: soluble on expression in E. coli; label from the status in PepcDB or PDB records

Soluble on expression in E. coli, not soluble:
MGSDKIHHHHHHMLPALWVAKTGLSAQDTNLTVISNNLANVSTTGFKRDRAEFADLLYQIKRQPGAQSTQDSELPSGLQVGTGVRIVGTQKSFVAGSLQTTDNPLDMAVNGRGFFQILQPDGTVSYTRDGTFHLNSDGQIVTDNGYALEPAIVVPNDAQTFTVGQDGTVSITTAGNPAAQVIGNIQTADFINPAGLQAIGDNLFLETAASGAPQVGTPGLNGFGTTLQQTLENSNVSTVEELVNMITTQRAYEMNSKVISTADQMLSFVTQQL
MGSDKIHHHHHHMLPFLRSELARCQPYHPNPGGTGMAMDILDTNECPYDLPTDLKQTLADRYVEAIASNRYPDGSHTDLKAAIVDYLSEQTAGQWQPGPEHVTVGNGSDELIRSILIATCLGGQGSVLVAEPTFSMYGIVAETLGIPVVRIGRDPQTWEMDLAAAETAITQTEGTPVRLCFVVHPNSPTANPLTEAEKDWLRQVPPQILVVIDEAYFEFSGETLLAELPQHPNWLITRTFSKALRLAAHRVGYGIGDPQLIAALEAIRLPYNLPSVAQLAATLALEARSQLLSAIPRLITERDRLYRKLQVVSQLQVWPSASNFLFLKTQSSSQTAALAAQLKAQGTLVRHTADGLRITIGSPAENERTLAHLQTAITQSLPATV
MGSDKIHHHHHHMLQGKVSVIVPAYNAARLLERCVRSITGQTYPALEVIVVDDGSKDDTGKIADQLAAEDSRIRVVHKTNGGVSAARNDALKLVEGEWITFVDSDDYLEPDFLRSLLDGEVADLVIGGYHTVGANEIPSANYPTDTAHSPEAIKRALEARLTDMTFLCPWGKLFRTSLVRSLRLIFNTEMKVGEDVVFVWSYLAHCSSLAFKQGQGYDYYTEPGADFKYALDETVSLQTIERILGVLDGLKRNFGMDTEHARCHVLNYYIWLFKLYVNRNYLLRDLARMKNFFYYPLILDYYKTYRRTSKDKLLVYLLLKLRLSGVLYLMIKLYY
MGSDKIHHHHHHMLQTTNKPPLTIRLCQPRGFCAGVDRAIQIVVLALKKYGAPVYVRHEIVHNRYVVEGLQSLGAVFIEELSEIPAEHRRSPVVFSAHGVPKSVPADAQARNLFYLDATCPLVSKVHKQAMRHQRLGRHVLLIGHAGHPEVIGTMGQLPEGAVTLVETEADAARLVPADPKALGFVTQTTLSVEDTAGIIRALRERFPDLQAPAAESICYATTNRQEAVKDTAPGADLYLIVGAPNSSNSRRLVEVAERAGATMSLLVQRAAEIPWNDIGTISTLGLSAGASAPEIIVDEIIDAFRQRFDVTIDLAITATETEDFPVMRVLRDVELTPADMAFVNGAA
MGSDKIHHHHHHMLRGKDATLAAIINIILDEEPETQDDIADRLGVSRRYVAKLLKPLVDGGAIMHPYVVNLEKLKEFEEYIETDRYFKEIYETFDRMGTNVIQNIDKVFDSLKTHDLDIAKSIILEDYALNRMEDEVNLVIKMKASKYMDMNSLMQVSNIAANIERCGDYLSNIAEEVVNGLLVDPAIKKEVFEIKEIISKMFAHAMNMVKSKTIETEIYELEGNLHKKLDTMMEKIAEHPDENLKDINQFIQFGMFLKDVERFGDRCLKIFELGREFHHNIPKNVTTPEYVRNLK
MGSDKIHHHHHHMLRRYRKLGEILLEKGFITREELDKALEIQKEERKPLGEVLIETGYITEDQLLEALSEQYGVPILKELPKNIPLNVVGSIPKNIIESLHVIPVEKKEDGTLVVVTDNGTNIPRIKQEIRFLTGKNPEIYLVTSRDFSVLYQTYVLGVPLELFEEPYVAIEETPEQVEEEEEEEREVEEAPIVRLVNNIVNRAIEMGASDIHIEPMKRTVRVRFRIDGILRKVLEYQKPQHNSVVARIKIMSGLDVSERRLPQDGKFYTIKGGEQYDFRVSTMPSTFGEKVVMRILKVSDANKRLEELGYSEYNLKRILSLLEKPYGIILVTGPTGSGKSTTLVAMINYLKSESVNIVTAEDPVEYTIEGVTQCQVFPEIGLTFARYLRAFLRQDPDIIMVGEIRDRETAQLAVEASLTGHLVLSTLHTNTAAGAVSRLIEMGIDPHLLGASLIGIIGQRLVRKLCDECKMPGEVRDEQVKSYFEQFFGKVPDQIYYPSEEGCPACKGMRYRGRMAIGEVLIVDEELRELISSKASETEIAKLAVKKGMRTMFQDALEKVLLGQTSIEEVFRVTTPL
MGSDKIHHHHHHMLSHETIWNAIDRLAEQYHLTPSGLARKAGLDPTSFNKSKRVGPDGRMRWPSTESIAKVLEATGARIDQFVTLISNDNHQVNAVHETLPDGNFPPQIGTIPLLGLAQAGSGGFFDDGGFPAGQGWDLVDLPTSAKPGVYALEIQGDSMKPLYRDGDILIVEPGAPVRRGDRVVVKTCDGEVMAKVLGRQTARTVDLISINPDHPNRVLDMQDVEWIARIIWVSQ
MGSDKIHHHHHHMLSRTAENLFWLARYVERAEYLARTIEATLRVTALPSAYIGKTNEWDSALLTAGVGGNFYNFHDEANEQSVVDYLAFSSDNPSSIRNCIENARLNARSVRTALTGEMWDTLNSAWIELQEAWGKGTKTREDLTRFLRFVQEISLRFDGSAYRTMLRNDAYWFSRLGLHLERADNTARILDVKYHVLLPEEEHVGGPLDYYQWSSILRSVSALTAYHWVYRETLKPWLIADLLILNDTLPRSLASCYGNLTRNLDNIGVAYGRHGAAQRHARGVRNRLEHSKMDDIFQRGVHEFIQEFIADNARLGEVIAKQYLI
MGSDKIHHHHHHMLSTTNLTMQFGAKALFENVSVEFGNGNRYGLIGANGSGKTTLMKILGGDLEPSSGHVSLSSGERLGKLRQDQFAFEECTVLDTVIMGHAELWRVKQERDRLYALPEMTDEEGMAVAHVEVEFAELGGYAAESRAGELLSGVGIPLEQHSGLMSAVSPGWKLRVLLAQALFADPDILLLDEPTNNLDIHTIQWLEELISNLNSTVIIISHDRHFLNSVCTHMADLDYGELRIYPGNYDEYMQASTLVRDQLLADNDKKKEKMAELQGFVSRFSANASKAKQATSRARQLEKIQLAEVKPSSRQNPYLVFNQERKLYRNALDGKDLSKSFGDLRLFHKMRLHVEAGERIAIIGSNGLGKTTLLRCLMGELTTDAGEIKWAENARIGYFAQDYAPEFAEDMTLFDWMCQWRGERDDDQVIRGVLGRLLFGQDQVNRSVKVLSGGEKGRMLFGKLTLQKPNVLILDEPTNHLDMESIESLNSALEKYDGTLLFVSHDRAFVSSLATRIIEFTPRGIQDFKGTYEDYLRSQGMG
MGSDKIHHHHHHMLSVFVVNLRSNSAPFSFSRLLMHTTIVNERSLRTCNFPITLQDIRTLKELYRLKAETRDLRKPIVRNIMKQRVVGKGCLESLKNALYSLETIYIDDYTGQRLLRIDGMKQIEVDLTYEIRELQKDIYYLEYGEDRFIEYLAKFIPGFTDYVTEGVEMLRGKSFNAFITDRDGTTNNYCGRYRSSIQPIYNSVFLSRFAKNCCRYPMIVTSAPLKDFGILNVSINPEHIFVYAGSKGREFIDIDGQFHSFPIEPGKQELIRLLNERMQLLLLDPSFEKFNFIGSALQMKFGQTTIARQDITRSVNEAESAAFLEKIKGIVRDIDPEGKNFRIEDTGLDIEIILTIDVDPKTGMIRDFDKGDGLEFICRKMNIDHTGEPVLVCGDTSSDIPMLKKAMEMYDDVWAIFVTRDEKLMQRVREICPKSYMVPYPDILLTILGLLSL
MGSDKIHHHHHHMLTVLLLAGAEKLINMAIASDEITKAGLVPLAGKVLRLNMGTPDVNLDVLFTQERLRFEPVTTESVFEQSGTMNERQKASLERGRLGHSRPDCIITVANPAQLLNLMRGTEGNLPIEGDYKVLMQLNQLVAGFDPDVAGQLEPFIGKPMASQLHLLISQLKGSWRHSAKRAFNDVSDWANDVAGNVTPDTSEAAEVNVLKQQLLKLRADVEREEARLAAIKDEQARLTNSR
MGSDKIHHHHHHMLVAERQQKIVEIVNMRSSIRVSELSDIFSVTEETIRRDLEKLEKEHKLSRSHGGAVSIQQKESEIHFSEREITNVIEKKAIAHEAAKYVKSGDRIILDASTTAWYMAKILPDIELTVITNSMKAAIELSNKENISVISTGGILLEKSLSFAGPLAERSLETYHVNKTFLSCKGFDVHNGMSDSNEWQALLKKRMIERSDQTILMADSSKWGNREFSHIASLQDVSRLITDSGLDPASVKALEDKKVKVTAVPLSKRG
